Biological target: 人Claudin18.2 (human) (UniProt P56856)
Assay: cell-based or functional assay

Binder	活细胞比率 (CDC, 20%人血浆, 30min, 293T-hClaudin18.2细胞; 无抗体对照81.34%)
鼠单抗1B10 (antibody, V domains shown) VH: QVQLKESGPGLVAPSQSLSITCTVSGFSLTSYVINWVRQPPGKGLEWLGVIWTGGGTNYNSALKSRLSISKDTSKSQVFLKMNSLQTDDTARYYCARGAYYGNAMDYWGQGTSVTVSS VL: DIVMTQSPSSLTVTAGEKVTMSCKSSQSLLNSGNQKNYLTWYQQKPGQPPKLLIYWAATRESGVPDRFTGSGSGTDFTLTISSVQAEDLAVYYCQNDYSYPFTFGSGTKLEIK	34%
鼠单抗1A6 (antibody, V domains shown) VH: QVQLQQPGAELVKPGASVKLSCKASGYTFTSYWMQWVKQRPGQGLEWIGMTHPNSGGTNYNEKFKSKATLTVDKSSSTAYMQLSSLTSEDSAVYYCARLGRGNAMDYWGQGTSVTVSS VL: DIVMTQSPSSLTVTAGEKVTMSCKSSQSLLNSGNQKNYLTWYQQKPGQPPKLLIYWASTRKSGVPDRFTGSGSGTDFTLTISSVQAEDLTIYYCQNDYSYPFTFGSGTKLEIK	3.94%
